The values below come from IntAct's records for PubMed 19369211.

First the molecules themselves.
B1: Partner and localizer of BRCA2 (Homo sapiens), Q86YC2 (parent)
chain: MDEPPGKPLSCEEKEKLKEKLAFLKREYSKTLARLQRAQRAEKIKHSIKKTVEEQDCLSQQDLSPQLKHSEPKNKICVYDKLHIKTHLDEETGEKTSITLDVGPESFNPGDGPGGLPIQRTDDTQEHFPHRVSDPSGEQKQKLPSRRKKQQKRTFISQERDCVFGTDSLRLSGKRLKEQEEISSKNPARSPVTEIRTHLLSLKSELPDSPEPVTEINEDSVLIPPTAQPEKGVDTFLRRPNFTRATTVPLQTLSDSGSSQHLEHIPPKGSSELTTHDLKNIRFTSPVSLEAQGKKMTVSTDNLLVNKAISKSGQLPTSSNLEANISCSLNELTYNNLPANENQNLKEQNQTEKSLKSPSDTLDGRNENLQESEILSQPKSLSLEATSPLSAEKHSCTVPEGLLFPAEYYVRTTRSMSNCQRKVAVEAVIQSHLDVKKKGFKNKNKDASKNLNLSNEETDQSEIRMSGTCTGQPSSRTSQKLLSLTKVSSPAGPTEDNDLSRKAVAQAPGRRYTGKRKSACTPASDHCEPLLPTSSLSIVNRSKEEVTSHKYQHEKLFIQVKGKKSRHQKEDSLSWSNSAYLSLDDDAFTAPFHRDGMLSLKQLLSFLSITDFQLPDEDFGPLKLEKVKSCSEKPVEPFESKMFGERHLKEGSCIFPEELSPKRMDTEMEDLEEDLIVLPGKSHPKRPNSQSQHTKTGLSSSILLYTPLNTVAPDDNDRPTTDMCSPAFPILGTTPAFGPQGSYEKASTEVAGRTCCTPQLAHLKDSVCLASDTKQFDSSGSPAKPHTTLQVSGRQGQPTCDCDSVPPGTPPPIESFTFKENQLCRNTCQELHKHSVEQTETAELPASDSINPGNLQLVSELKNPSGSCSVDVSAMFWERAGCKEPCIITACEDVVSLWKALDAWQWEKLYTWHFAEVPVLQIVPVPDVYNLVCVALGNLEIREIRALFCSSDDESEKQVLLKSGNIKAVLGLTKRRLVSSSGTLSDQQVEVMTFAEDGGGKENQFLMPPEETILTFAEVQGMQEALLGTTIMNNIVIWNLKTGQLLKKMHIDDSYQASVCHKAYSEMGLLFIVLSHPCAKESESLRSPVFQLIVINPKTTLSVGVMLYCLPPGQAGRFLEGDVKDHCAAAILTSGTIAIWDLLLGQCTALLPPVSDQHWSFVKWSGTDSHLLAGQKDGNIFVYHYS

Variants of B1 are the subject of this experiment. The following applies: with brca1_human BRCA1, P38398.
Chain of brca1_human BRCA1, P38398 (P38398 whole entry, looked up): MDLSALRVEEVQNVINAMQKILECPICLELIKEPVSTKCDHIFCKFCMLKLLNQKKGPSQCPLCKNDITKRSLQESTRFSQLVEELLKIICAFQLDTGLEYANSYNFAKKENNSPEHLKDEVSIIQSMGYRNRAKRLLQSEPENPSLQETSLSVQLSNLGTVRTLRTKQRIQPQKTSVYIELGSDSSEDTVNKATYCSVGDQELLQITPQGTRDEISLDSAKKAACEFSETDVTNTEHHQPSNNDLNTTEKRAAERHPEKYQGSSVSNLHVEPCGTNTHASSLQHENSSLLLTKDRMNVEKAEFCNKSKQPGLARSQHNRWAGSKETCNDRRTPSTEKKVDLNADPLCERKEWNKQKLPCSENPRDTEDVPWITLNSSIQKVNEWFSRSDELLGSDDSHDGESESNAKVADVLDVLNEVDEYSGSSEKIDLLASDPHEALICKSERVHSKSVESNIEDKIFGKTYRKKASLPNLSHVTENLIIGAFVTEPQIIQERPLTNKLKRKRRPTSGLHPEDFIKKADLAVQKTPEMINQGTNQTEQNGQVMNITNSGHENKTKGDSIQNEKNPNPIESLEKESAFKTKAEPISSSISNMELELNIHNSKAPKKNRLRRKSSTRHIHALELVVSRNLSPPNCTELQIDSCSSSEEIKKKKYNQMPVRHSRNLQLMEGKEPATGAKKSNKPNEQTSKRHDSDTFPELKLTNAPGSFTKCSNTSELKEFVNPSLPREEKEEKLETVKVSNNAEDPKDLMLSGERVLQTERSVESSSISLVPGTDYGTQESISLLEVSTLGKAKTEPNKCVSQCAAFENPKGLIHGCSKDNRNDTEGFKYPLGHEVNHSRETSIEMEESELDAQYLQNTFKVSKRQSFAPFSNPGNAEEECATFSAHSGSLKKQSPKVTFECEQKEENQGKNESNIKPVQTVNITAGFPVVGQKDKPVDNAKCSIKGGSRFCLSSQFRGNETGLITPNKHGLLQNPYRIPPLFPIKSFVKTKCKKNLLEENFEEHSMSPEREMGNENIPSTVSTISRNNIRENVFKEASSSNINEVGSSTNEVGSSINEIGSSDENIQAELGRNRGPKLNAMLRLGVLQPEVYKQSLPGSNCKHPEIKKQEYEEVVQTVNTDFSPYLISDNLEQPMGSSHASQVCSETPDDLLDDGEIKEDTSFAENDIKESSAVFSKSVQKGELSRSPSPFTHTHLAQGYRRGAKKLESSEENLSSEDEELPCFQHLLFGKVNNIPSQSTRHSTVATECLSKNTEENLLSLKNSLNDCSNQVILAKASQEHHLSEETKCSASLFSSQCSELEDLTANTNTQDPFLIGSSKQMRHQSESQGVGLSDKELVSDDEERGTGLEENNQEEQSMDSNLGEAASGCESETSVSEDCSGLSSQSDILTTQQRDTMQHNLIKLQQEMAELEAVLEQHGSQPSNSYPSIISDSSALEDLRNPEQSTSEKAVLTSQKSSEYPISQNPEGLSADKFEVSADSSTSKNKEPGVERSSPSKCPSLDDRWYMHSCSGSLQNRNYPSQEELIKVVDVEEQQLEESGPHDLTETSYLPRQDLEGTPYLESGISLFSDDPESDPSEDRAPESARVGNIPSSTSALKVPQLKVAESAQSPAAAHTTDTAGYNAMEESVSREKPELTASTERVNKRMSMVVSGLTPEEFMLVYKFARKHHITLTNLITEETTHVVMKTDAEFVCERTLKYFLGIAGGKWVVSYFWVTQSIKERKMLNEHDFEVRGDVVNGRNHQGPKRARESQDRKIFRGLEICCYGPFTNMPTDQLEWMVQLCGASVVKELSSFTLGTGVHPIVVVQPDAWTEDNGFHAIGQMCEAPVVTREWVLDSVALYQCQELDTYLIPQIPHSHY
As to Y28A, the “effect of a mutation on the interaction” value is “disrupting interaction”.
The value for L21A was “disrupting interaction”.
